Experimental data as given in the nanobody polyreactivity screen of Harvey et al. (2022).

Assay: yeast display, Sf9 membrane polyspecificity reagent, FACS + sequencing; frameworks hold sequencing errors
Outline: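 Nanobodies from a synthetic yeast display library (Saccharomyces cerevisiae BJ5465), induced 36–48 hours with galactose, were stained 1 hour at 4 °C with 10% biotinylated, detergent-solubilized Sf9 membrane reagent, enriched on streptavidin microbeads, then FACS-sorted. Anti-HA (expression) and streptavidin (reagent binding) fluorescence set low and high (top ~1%) gates. Polyreactivity labels come from the gate of origin. Genes were colony-PCR amplified, MiSeq 2 × 250 sequenced and filtered by CDR length.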

Row | Sequence | polyreactivity (PSR sort gate)
1 | QVQLVESAGGLVQAGGSLRLSCAASGIIFPVYAMGWYRQAPGKERELVAAITSSGGSTYYADSVKGRFTISRDNAKNTVYLQMNSLKPEDTAVYYFAAVRKSRFDYGGQGTQVTVSS | high polyreactivity
2 | QVHLVESGGGLVQAGGSLRLSCAASGFTFGVYAMGWYRQAPGKERELVAAISRRGTSTYYADSVKGRFTISRDTAKYTVYLQMNSLKPEDTAVYYCNARRYQVTVDHWGQGTQVTVSS | high polyreactivity
3 | QVQLVESGGGLVQAGGSLRLSCAASGRIFRYYTRGWYRQAPGKERELVAAISSSGGRTYYADSVKGRFTISRDYANNTVYLQMNSLKPEDTAVYYCNTDGPTWYPTYDYWGQGTQVTVSS | high polyreactivity
4 | QVQLVESGGGLVQAGGSLRLSCAASGSIFYYYAMGWYRQAPGKERELVAAISRNGGSTSYADSVKGRFTISRDNAKNTVYLQMNSLKPEDTAVYYCNTYGGYKYDYWGQGTQVTVSS | low polyreactivity
5 | QVQLVESGGGLVQAGGSLRLSCAASGSIFSYYAMGWYRQAPGKERELVAAISKRGASTYYADSVKGRFTISRDNAKNTVYLQMNSLKPEDTAVYYCAARPYGGGRRSIYYYWGQGTQVTVSS | high polyreactivity
6 | QVQLLESGGGLVQAGGSLRLSCAASGSTFASYAMGWYRQAPGKETELVAAITRTGSTYYADSVKGRFTISRDNAKNTVYLQMNSLKPEDTAVYYCAKLWIGGYKYYYWGQGTQVTVSS | high polyreactivity
7 | QVQLVESGGGLVQAGGSLRLSCAASGRTFRSNVMGWYRPAPGNERELVASITWSGGTTYYADSVKGRFTISRDNAKNTVYLQMNSLKPEDTAVYYCNAADERSQGWVGYDNWGQCTQVTVSS | low polyreactivity
8 | QVQLVESGGGLVQAGGSLRLSCAASGFIFYTYAMGWYRQAPGKERELVAAISRGGRTNYADSVKGRFTISRDNAKNTVYLQMNSLKPEDTAVYYCASSYSHRYDYWGQGTQVTVSS | high polyreactivity
9 | QVQLVESGGGLVQAGGSLRLSCAASGSIFYYYAMGWYRQAPGKERELVAAISWCGGSTYYADSVKGRFTISRDNAKNTVYLQMNSLKPEDTAVYYCAAQRRYGDDYWGQGTQVTVSS | high polyreactivity
10 | QVQLVESGGGLVQAGGSLRLSSAASGTFWWYAMGWYRQAPGQEMELVASINRGGSTYYADSVKGRFTISRDNAKNTVYLQMNSLKPEDTAVYYCAAQVDRKYRWFNSWGQGTQVTVSS | high polyreactivity
11 | QVQLVESCGGLVQAGGSLRLSCAASGSTFWKYVMGWYRQAPGKDRELVAAISGRGGSTYYADSVKGRFTISRDNAKNTVYLQMNSLKPEDTAVYYCAKVHTRRKPYNSWGQGTQVTVSS | high polyreactivity
12 | QVQLGESGGGLVLAGGSLRLSCAASGYIFRAYAMGWYRQAPGKERELVAAISSRGGSTYYADSVKGRFTSSRDYAKNTVYLQMNSLKPEDTEVYYCAAAYRQPYIGYGYWGQGTQVTVSS | high polyreactivity
13 | QVQLVESGGGLVQAGGSLRLSCSASGNNFESYGMGWYRQAPGKERELVATINTSSGSTNYADSVKGRFTISRDNAKNTVYVQMNSLKPEDTAVYYCAAVFVEQGEDDYWGQGTQVTVSS | low polyreactivity
14 | QVQLVDSGGGLVQAGGSLRLSCAASGRNFSPYTMGWYRQAPGKVREMVAAIRSGDGRTYYADSVKGRFTISRDNAKNTVYLQMNSLKQEDTAVYYCAARRGKVYVSGNGYWGQGTQVTVSS | high polyreactivity
15 | QVQLVESGGGLVQAGGSLRLSCAASGRIFSSYTMGWYRQAPGKERELVATITLRGGRTYYADSVKGRFTISRDNAKNTVYLQMNSLKPEDTAVYYCAATYLTYYHRFNYWGQGTQVTVSS | high polyreactivity
16 | QVQLVESGGGLVQAGGSLRLSCAASGSTFYVNAMGWYRQAPGKERELVAVISTGGSTYYADSVKGRFTISRDNAKNTVYLQMNSLKPEDTAVYYCAKRDLPDRSGTPNVIPFDYWGQGSQVTVSS | low polyreactivity
17 | QVQLVESGGGLVQAGGSLRLSCAASGFIFGYYAMGWYRQAPGKERELVAAISGDAGRTYYADSVKGRFTISRDNAKNTVYLQMNSLKAEDTAVYYCAAADTYKMDYWGQGTQVTVSS | low polyreactivity
18 | QVQLVESGGGLVQAGGSLRLSCAASGSIFQYNVKGWYIQAPGTERELVAAITSGGSTYYADSVKGRFTISRDNAKNTVYLQMNSLKPEDTAVYYCARDIRRKGFRYDYWGQGTQVTVSS | high polyreactivity
19 | QVQLVESDGGLDQAGGSLRLSCPASGIIFGYYVMGRYRQAPGKERELVASITSGGSTNYADSVKGRFTISRDNAKNTVYLQMNSLKPEDTAVYYCAAEERTDTIPGWRYPHDYWGQGTQVTVSS | low polyreactivity
20 | QVQLVESGGGLVQAGGSLRLSCAASGGTFSKYAMGWYRQAPGKERELVAAITYSSGSKYYADSVKGRFTISRDNAKNTVYLQMNSLKPEDTADYYCAARSGLYWWRFDYWGQGTQVTVSS | high polyreactivity
21 | QVQLVESGGGLVQAGGSLRLSCAASGSTYSYYVMGWYRQAPGKERELVAAISRSGGRTYYADSVKGRFTISRDNAKNTVYLQMNSLKPEDTAVNYCAAREFDHPPYDYWGQGTQVTVSS | high polyreactivity
22 | QVQLVESGGGLVQAGGSLRLSCAASGGTFRPNAMGWYRQAPGKERELVAAITRSGGSTYYADSVKGRFTISRDNAKNTVYLQMNSLKPEDTAVYYCARDLRECGQGTQVTVSS | low polyreactivity

Row | Sequence | polyreactivity (PSR sort gate)
23 | QVQLVESGGGLVQAGGSLRLSCAASGFTFPYYAMGWYRQAPGKERELVAAINSVGSTYYADSVKGRFTISRDNAKNTVYLQMNSLKPEDTAVYYCNKRPSHWRHYIMDYWGQGTQVTVSS | high polyreactivity
24 | QVQLVESGGGLVQAGGSLRVSCAASGRNFYYYAMGGYRQAPGKERELVAAINWSGGGTYYADSVKGRFTISRDNAKNTVYFQMNSLKPEDTAVYYCAAGFRYRYYWGQGTQVTVSS | high polyreactivity
25 | QVQLVESAGGLVQAGGRLRLSCAASGFTFRYYAMGWYRQAPGKERELVATITPGGSTNYADSVKGRFTISRDNAKNTVYLEMNSLKPEDTAVYYCAASLYRVIAFGYWGQGTQVTVSS | high polyreactivity
26 | QVQLGESGGGLVQAGGSLRLSCAASGRIFVYNAMGWYRQAPGKERQLVAAIRNDGSTNYADSVKGRFTISRDNAKNTVYFQMNSLKPEDTAVYYCAKSVTGWRGLWYTPRNYYWGQGTQVTVSS | high polyreactivity
27 | QVQLVESGGGLVQAGGSIRLSCAASGITFVGNAMGWYRQAPGKERELVASISSGASTNYADSVKGRFTISRDNAKNTVYLQMNSLKPEDTAVYYCAAEGSLEGWDFDSWGQGTQVTVSS | low polyreactivity
28 | QVQLVESGGGLVQAGGSLRLSCAASGRIFRFNAMGWYRQAPGKERELVAAITGSGGTTFYADSVKGRFTLSRDNAKNTVYLQMNSLKPEDTAVYYCNTLGNWRPVYNQPRYEYWGQGTQVTVSS | high polyreactivity
29 | QVQLVESGGGLVQAGGTLRLSCAASGSIFAVNAMGWYRQAPGKERELVAAISKRGGSTYYADSVKGRFTISRDNAKNTVYLQMNSLKPEDTAVYYCAARILVTYHRDYYYWGLGTQVTVSS | high polyreactivity
30 | QVQLEESGGGLVQAGGSLRLSCAASGFIFWANAMGWYRQAPGKERELVAAIRYSGGRTYYADSVKGRFTSSRDTAKNTFFLLMNSLIPEDTAVYYCAKEYKNYGGFVVEYDYWGQGTQVNVSS | low polyreactivity
31 | QVQLVESGGGLVQAGGSLRLSCAASGSIFTRNAMGWYRQAPGKERELVASISYSGGNTYYADSVKGRFTISRDNAKNTVYLQMNSLKPEDTAVYYCNARRWFYLLYGYDYWGQGTQVTVSS | high polyreactivity
32 | QVQLVESGGGLVQAGGSLRLSCAASGRISYLYTMGWYRQAPGKERELVAAIRWRDGSTYYADSVKGRFTISRDNAKNTVYLQMNSLKPEDTAVYYCAKRFAGGEYGYYWGQGTQVTVSS | low polyreactivity
33 | QVQLVESGGGLVQAGGSLRLSCAASGRIFRGNTMGWYRQAPGKERELVATINGRGGSTYYADSVKGRFTISRDNAKNTVYLQMNSLKPVDTAVYYCAARRGYPRFEYWGQGTQVTVSS | high polyreactivity
34 | QVQLVESGGGLVQAGGSLRLSCAASGSIFENYAMGCYRQAPGKERELVAAISSSGDSTYYADSVKGRFTISRDNAKNTVYLQMNSLKPEDTAVYYCAKGYRRVYGPFYYWGQVTQVTVSS | low polyreactivity
35 | QVQLVESGGGLVQAGGSLRLTCAASGSIFSHYAMGWYRQATGKERELVAAITYGGGSTYYADSVKGRFTISRDIAMNTVYLQMNSLKPDDTAVYYCAKEFKYWGYPYDYWGQGTQVTVSS | low polyreactivity
36 | QVQLVESGGGLVQAGGSLRLSCAASGSIFFPYTMGWYRQAPGKERELVAAISERGGDTYYADSVKGRFTISRDNAKNTVYLQMNSLKPEDTAVYDCAAATSPISTSDYWGQGTQVTVSS | low polyreactivity
37 | QVQLVESGGGLVQAGGSLRLSCAASGSIFGYYAMGWYRQAPGTERELVAAITTGGSTSYADSVKGRFTISRDNAKNTVYLQMNSLKPEDTAVYYCAARPHHGWLEYGSAGLGYWGQGTQVTVSS | low polyreactivity
38 | QVQLVESGGGLVQAGGSLRLSCAASGRIFVGYTMGWYRQAPGKERELVASISWSGASTYYADSVKGRFTISRDNAKNTVYLQMNSLKPEDTAVYYCAARYYKYYNSYDYWGQGTQVTVSS | high polyreactivity
39 | QVQLVESVGGLVQAGGSLRLSCAASGFTFSSNAMGWYRQAPGKERELVAAISGTGGSTYYSDSVKVRITISRDNAKNTFYLLMNRLKPDDKAVYYCARVYNFYTSGYDYWGKGTQVTVSS | high polyreactivity
40 | QVQLVESGGGLVQAGGILRLRCAASGLTFVYYAMGWYRQAPGKERELVAGITSRGGRTYYADSVKGRFTISRDNAKNTVYLQMNSLKPEDTAGYYCNAVDRYNRFDYWGQGTQVTVSS | high polyreactivity
41 | QVQLVESGGGLVQAGGSLRLSCAASGSIFWSNDMGWYRQAPGKERELVAAITITGDTTYYADSVKGRFTISRDNAKNTVYLQMNSLKPEDTAVYYCAAVEVRRVADYGFCLLDYWGQGTQVTVSS | high polyreactivity
42 | QVQLVESGGGLVQAGGSLRLSCSACGGIFDWYAMGWYRQAPGKERELVAAIDFSGDSTYYADSVKGRFTISRDNAKNTVYLQMNSLKPEDTAVYYCAAETNTWYLFDYWGQGTQVTVSS | high polyreactivity
43 | QVQLVESGGGLVQAGGSLRLSCAASGITLTKYAMGWYRQAPGKERELVAAISKRGTNTYYADSVKGRFTISRDNAKNTVYLQMNSLKPEDTAVYYCNAPGHRQNGLGDYWGQGTQVTVSS | high polyreactivity
